Our source for the Primary Neutralization Index (B cell culture supernatant), Fold IC50 increase relative to wild-type and IC50 (µg/mL), pseudovirus neutralization values is patent US20250320281A1.

Changes are numbered by the printed parent chain.

What all share (assay): cell-based or functional assay
Assay [1] addresses HIV-1 Env of isolate MGRM-C-026 (pseudovirus) (HIV-1).
Assay [2] concerns the target HIV-1 Env of isolate 93IN905 (pseudovirus) (HIV-1).
For assay [3], the target named is HIV-1 Env of isolate JR-CSF (pseudovirus) (HIV-1) (UniProt P20871).
Assay [4] addresses HIV-1 JR-CSF Env F468A (HIV-1 isolate JR-CSF) (UniProt P20871).
For assay [5], the target named is HIV-1 Env of isolate 92BR020 (pseudovirus) (HIV-1).
In assay [6] the target is HIV-1 Env of isolate 94UG103 (pseudovirus) (HIV-1).
Assay [7] addresses HIV-1 Env of isolate MGRM-A-002 (pseudovirus) (HIV-1).
In assay [8] the target is HIV-1 Env of isolate MGRM-A-001 (pseudovirus) (HIV-1).
In assay [9] the target is HIV-1 Env of isolate 92RW008 (pseudovirus) (HIV-1).
For assay [10], the target named is HIV-1 Env of isolate 92WR020 (pseudovirus) (HIV-1).
The target in assay [11] is HIV-1 Env of isolate MGRM-A-005 (pseudovirus) (HIV-1).
For assay [12], the target named is HIV-1 Env of isolate MGRM-A-007 (pseudovirus) (HIV-1).
Assay [13] concerns the target HIV-1 Env of isolate MGRM-A-004 (pseudovirus) (HIV-1).
For assay [14], the target named is HIV-1 Env of isolate MGRM-A-012 (pseudovirus) (HIV-1).
The target in assay [15] is HIV-1 Env of isolate MGRM-A-006 (pseudovirus) (HIV-1).
For assay [16], the target named is HIV-1 Env of isolate MGRM-A-013 (pseudovirus) (HIV-1).
The target of assay [17] is HIV-1 Env of isolate VLGCA1 (pseudovirus) (HIV-1).
Assay [18] concerns the target HIV-1 Env of isolate 92UG031 (pseudovirus) (HIV-1).
Assay [19] concerns the target HIV-1 Env of isolate 94KE105 (pseudovirus) (HIV-1).
In assay [20] the target is HIV-1 Env of isolate MGRM-AE-001 (pseudovirus) (HIV-1).
Assay [21] addresses HIV-1 Env of isolate MGRM-A-010 (pseudovirus) (HIV-1).
Assay [22] addresses HIV-1 Env of isolate 92WR026 (pseudovirus) (HIV-1).
The target of assay [23] is HIV-1 Env of isolate CMU02 (pseudovirus) (HIV-1).
Assay [24] has as its target HIV-1 Env of isolate MGRM-AE-003 (pseudovirus) (HIV-1).
The target in assay [25] is HIV-1 Env of isolate MGRM-A-014 (pseudovirus) (HIV-1).
Assay [26] addresses HIV-1 Env of isolate 93WR029 (pseudovirus) (HIV-1).
The target in assay [27] is HIV-1 Env of isolate 93UG077 (pseudovirus) (HIV-1).
For assay [28], the target named is HIV-1 Env of isolate MGRM-A-008 (pseudovirus) (HIV-1).
For assay [29], the target named is HIV-1 Env of isolate MGRM-A-011 (pseudovirus) (HIV-1).
Assay [30] addresses HIV-1 Env of isolate 92WR009 (pseudovirus) (HIV-1).
In assay [31] the target is HIV-1 Env of isolate MGRM-A-003 (pseudovirus) (HIV-1).
In assay [32] the target is HIV-1 Env of isolate MGRM-AE-002 (pseudovirus) (HIV-1).
In assay [33] the target is HIV-1 Env of isolate 92WR024 (pseudovirus) (HIV-1).
In assay [34] the target is HIV-1 Env of isolate 92TH021 (pseudovirus) (HIV-1).
Assay [35] deals with HIV-1 Env of isolate 92UG037 (pseudovirus) (HIV-1).
Assay [36] deals with HIV-1 Env of isolate MGRM-A-009 (pseudovirus) (HIV-1).
The target of assay [37] is HIV-1 Env of isolate 92WR021 (pseudovirus) (HIV-1).
The target in assay [38] is HIV-1 JR-CSF Env E466A (HIV-1 isolate JR-CSF) (UniProt P20871).

B1: 5366_P21 (PGT-136) (antibody, V domains shown)
VH: QLQLQESGPGLVKPSETLSLTCTVSGGSMRGTDWGENDFHYGWIRQSSAKGLEWIGSIHWRGRTTHYKTSFRSRATLSIDTSNNRFSLTFSFVTAADTAVYYCARHKYHDIFRVVPVAGWFDPWGQGLLVTVSS
VL: EIVMTQSPPTLSVSPGETATLSCRASQNVKNNLAWYQLKPGQAPRLLIFDASSRAGGIPDRFSGSGYGTDFTLTVNSVQSEDFGDYFCQQYEEWPRTFGQGTKVDIK
As to B1, the Primary Neutralization Index (B cell culture supernatant) in assay [1] worked out at 6.2; in assay [2], 5.5; in [3], 1.1.

B2: PGT-130 (antibody, V domains shown)
VH: QVQLQESGPGLVKPAETLSLTCSVSGESINTGHYYWGWVRQVPGKGLEWIGHIHYTTAVLHNPSLKSRLTIKIYTLRNQITLRLSNVTAADTAVYHCVRSGGDILYYYEWQKPHWFSPWGPGIHVTVSS
VL: QSALTQPPSASGSLGQSVTISCNGTSSDIGGWNFVSWYQQFPGRAPRLIIFEVNKRPSGVPGRFSGSKSGNSASLTVSGLQSDDEGQYFCSSLFGRWDVVFGGGTKLTVL
With B2, in assay [4], the Fold IC50 increase relative to wild-type stood at 0.4 fold.

B3: 4869_K15 (PGT-133) (antibody, V domains shown)
VH: QVHLQESGPGLVTPSETLSLTCTVSNGSVSGRFWSWIRQSPGRGLEWIGYFSDTDRSEYNPSLRSRLTLSVDRSKNQLSLRLKSVTAADSATYYCARAQQGKRIYGIVSFGEFFYYYYMDAWGKGTPVTVSS
VL: SLNPLSLAPGATAKIPCGERSRGSRAVQWYQQKPGQAPTLIIYNNQDRPAGVSERFSGNPDVAIGVTATLTISRVEVGDEADYYCHYWDSRSPISWIFGGGTQLTVL
For the molecule B3, the Primary Neutralization Index (B cell culture supernatant) is 104 in [1], 3.9 in [5], 1.5 in assay [6] and 2.1 in assay [3].

B4: PGT-127 (5145_B14) (antibody, V domains shown)
VH: QPQLQESGPGLVEASETLSLTCTVSGDSTGRCNYFWGWVRQPPGKGLEWIGSLSHCRSYYNTDWTYHNPSLKSRLTISLDTPKNQVFLRLTSVTAADTATYYCARFGGEVLVYRDWPKPAWVDLWGRGTLVVTVS
VL: QSALTQPPSASGSPGQSITISCTGTSNNFVSWYQQYPGKAPKLVIYEVNKRPSGVPDRFSGSKSGSTASLTVSGLQADDEGVYYCSSLVGNWDVIFGGGTKLTVL
As to B4, the IC50 (µg/mL), pseudovirus neutralization was 9.42 µg/mL in assay [7]; > 50 µg/mL in assay [8]; 0.012 µg/mL in [9]; 0.01 µg/mL in assay [10]; > 50 µg/mL in [11]; > 50 µg/mL in assay [12]. The IC50 (µg/mL), pseudovirus neutralization in [13] was > 50 µg/mL; in assay [14] it was 0.105 µg/mL; in assay [15], > 50 µg/mL; in [16] it was 0.029 µg/mL; in assay [6], 0.017 µg/mL; in assay [17], > 50 µg/mL. The IC50 (µg/mL), pseudovirus neutralization in [18] was > 50 µg/mL; in [19], 0.023 µg/mL; in assay [20], > 50 µg/mL; in [21], 0.017 µg/mL; in [22] it was 0.024 µg/mL; in assay [23] it was > 50 µg/mL. The IC50 (µg/mL), pseudovirus neutralization is > 50 µg/mL in [24]; 0.24 µg/mL in [25]; > 50 µg/mL in assay [26]; 0.055 µg/mL in assay [27]; > 50 µg/mL in assay [28]; > 50 µg/mL in assay [29]. For the same molecule, the IC50 (µg/mL), pseudovirus neutralization in assay [30] is > 50 µg/mL; in assay [31], > 50 µg/mL; in assay [32], > 50 µg/mL; in assay [33] it was > 50 µg/mL; in assay [34], > 50 µg/mL; in assay [35] it was 0.014 µg/mL. The IC50 (µg/mL), pseudovirus neutralization turned out to be 0.013 µg/mL in assay [36] and 0.011 µg/mL in assay [37].

B5: PGT-126 (antibody, V domains shown)
VH: QPQLQESGPGLVEASETLSLTCTVSGDSTAACDYFWGWVRQPPGKGLEWIGGLSHCAGYYNTGWTYHNPSLKSRLTISLDTPKNQVFLKLNSVTAADTAIYYCARFDGEVLVYHDWPKPAWVDLWGRGTLVTVSS
VL: B4 VL with T19S, N28R, Y36H, E47G, S66N, A77T, G81A
In the case of B5, the Fold IC50 increase relative to wild-type in assay [38] was found to be 1.4 fold.

B6: 5344_E16 (PGT-135) (antibody, V domains shown)
VH: QLQMQESGPGLVKPSETLSLSCTVSGDSIRGGEWGDKDYHWGWVRHSAGKGLEWIGSIHWRGTTHYKESLRRRVSMSIDTSRNWFSLRLASVTAADTAVYFCARHRHHDVFMLVPIAGWFDVWGPGVQVTVSS
VL: EIVMTQSPDTLSVSPGETVTLSCRASQNINKNLAWYQYKPGQSPRLVIFETYSKIAAFPARFVASGSGTEFTLTINNMQSEDVAVYYCQQYEEWPRTFGQGTKVDIK
For the molecule B6, the Primary Neutralization Index (B cell culture supernatant) worked out at 3.6 in assay [1], 2.3 in [2] and 1.5 in assay [3].
